According to patent publication US8652473B2, “Antibodies to EGF receptor epitope peptides and uses thereof” (Ludwig Institute for Cancer Research Ltd., priority 2004, dated 2014):
Marks after values point to notes of the source that are not given here.

Assays:
[1] = target: T1, D^563H EGFR (Homo sapiens, UniProt P00533, D587H); experiment: Scatchard analysis of 125I-EGF binding, BaF/3 D563H; details: BaF/3 D^563H
T1 construct: expressed in transfected cells
Procedure: (§1) Single point mutations of the wild-type EGFR were generated using a site-directed mutagenesis kit (Stratagene, La Jolla, Calif.). The template for each mutagenesis was the human EGFR cDNA; (24)) containing the leader sequence followed by a FLAG tag coding sequence, in the mammalian expression vector pcDNA3 (Invitrogen, Carlsbad, Calif.) as described in (4). The automated nucleotide sequencing of each construct was performed to confirm the integrity of each EGF receptor mutation. EGFR expression constructs were transiently expressed in 293 cells (American Type Culture Collection, Manassas, Va.) and the presence of receptor protein determined by staining with 528 and M2 antibodies to confirm expression at the cell surface and to ensure protein folding occurred appropriately (data not shown).
(§2) Wild-type and mutant EGFRs constructs were transfected into the IL-3-dependent murine hemopoietic cell line BaF/3 as described previously (25). Transfected cells were selected in G418 for 10 days. Viable cells were screened for EGFR expression by FACS analysis on a FACStar (Beckton and Dickinson, Franklin Lakes, N.J.) using antibodies to the flag tag (M2: 10 μg/ml in PBS/5% FCS/5 mMEDTA) and/or to the EGFR extracellular domain (mAb528: 10 μg/ml in PBS/5% FCS/5 mMEDTA) followed by Alexa 488-labelled anti-mouse Ig (1:400 final dilution). Background fluorescence was determined by incubating the cells with an irrelevant, class matched primary antibody. Positive pools were sorted for the appropriate level of EGFR expression on a FACS-DIVA (Becton and Dickinson). After final selection, mRNA was isolated from each cell line and all mutations in the EGFR were confirmed by PCR annalysis. All cells were routinely passaged in RPMI/10% FCS/10% WEHI3B conditioned medium (26) and 1.5 mg/ml G418.
(§3) Murine EGF, purified from mouse submaxillary glands (27), was iodinated using Iodogen (28) to a specific activity of 5-8×10^5 cpm/pmol. Ligand binding to cells expressing the wt or mutant EGFR was determined at room temperature in the presence of the […] (PAO) (29) by cold saturation experiments. Briefly, cells were incubated in PBS/1% BSA/30 μM PAO with or without increasing amounts of unlabelled EGF (20 pM-5.12 nM) and with a constant amount (300 pM) of ^125I EGF. Non-specific binding was determined using a 500-fold excess of unlabelled EGF over ^125I-EGF. All experimental points were prepared in triplicate. At the end of the incubation, the cells were pelleted and washed twice in ice-cold PBS before transferring to fresh tubes for counting in a Wallac WIZARD γ-counter (PerkinElmer, Boston, Mass.). Scatchard plots and estimates of ligand binding affinities and receptor numbers were obtained using the Radlig program (BioSoft, Cambridge, UK).

[2] = target: T2, L^245C/E^578C EGFR (Homo sapiens, UniProt P00533, E602C/L269C); experiment: Scatchard analysis of 125I-EGF binding, BaF/3 L245C/E578C; details: BaF/3 L^245C/E^578C; less than 10% of number by FACS or immunoblotting
T2 construct: expressed in transfected cells
Procedure: as §1
(§4) Wild-type and mutant EGFRs constructs were transfected into the IL-3-dependent murine hemopoietic cell line BaF/3 as described previously (25). […] Background fluorescence was determined by incubating the cells with an irrelevant, class matched primary antibody. […]
(§5) Murine EGF, purified from mouse submaxillary glands (27), was iodinated using Iodogen (28) to a specific activity of 5-8×10^5 cpm/pmol. Ligand binding to cells expressing the wt or mutant EGFR was determined at room temperature in the presence of the […] […] Non-specific binding was determined using a 500-fold excess of unlabelled EGF over ^125I-EGF. […]

[3] = target: T3, Y^246W EGFR (Homo sapiens, UniProt P00533, Y270W); experiment: Scatchard analysis of 125I-EGF binding, BaF/3 Y246W; details: BaF/3 Y^246W
T3 construct: expressed in transfected cells
Procedure: as §1
as §2, with “All cells were routinely passaged in RPMI/10% FCS/10% WEHI3B conditioned medium (26) and 1.5 mg/ml G418.” left out
as §5

[4] = target: T4, E^578C EGFR (Homo sapiens, UniProt P00533, E602C); experiment: Scatchard analysis of 125I-EGF binding, BaF/3 E578C; details: BaF/3 E^578C
T4 construct: expressed in transfected cells
Procedure: as §1, §4, §5

[5] = target: T5, Y^246D EGFR (Homo sapiens, UniProt P00533, Y270D); experiment: Scatchard analysis of 125I-EGF binding, BaF/3 Y246D; details: BaF/3 Y^246D
T5 construct: expressed in transfected cells
Procedure: as §1
as §2, with “All cells were routinely passaged in RPMI/10% FCS/10% WEHI3B conditioned medium (26) and 1.5 mg/ml G418.” left out
as §5

[6] = target: T6, V^583D EGFR (Homo sapiens, UniProt P00533, V607D); experiment: Scatchard analysis of 125I-EGF binding, BaF/3 V583D; details: BaF/3 V^583D
T6 construct: expressed in transfected cells
Procedure: as §1, §2, §3

[7] = target: T7, wt-EGFR (Homo sapiens, UniProt P00533); experiment: Scatchard analysis of 125I-EGF binding, BaF/3 wt-EGFR
T7 construct: […]; expressed in transfected cells
Procedure: as §1, §2, §3

[8] = target: T8, Y^246F EGFR (Homo sapiens, UniProt P00533, Y270F); experiment: Scatchard analysis of 125I-EGF binding, BaF/3 Y246F; details: BaF/3 Y^246F
T8 construct: expressed in transfected cells
Procedure: as §1
as §2, with “All cells were routinely passaged in RPMI/10% FCS/10% WEHI3B conditioned medium (26) and 1.5 mg/ml G418.” left out
as §5

[9] = high affinity sites, listed as 125I-EGF

Substance: EGF: Murine EGF purified from mouse submaxillary glands, iodinated for binding; EGFR ligand
- R/cell (from Bmax) [1]: 2.3 +/− 0.8 R/cell × 10^−4
- [EGF] at which 500R/cell are occupied ([1]; calculated from Kd and Bmax): 8 pM
- % of sites (Kd1) ([1]; high affinity sites): 4.4 +/− 0.7) %
- % of sites (Kd2) ([1]; low affinity sites): 96.4 +/− 0.7%
- R/cell (from Bmax) [2]: 0.37 +/− 0.002^b R/cell × 10^−4
- % of sites (Kd2) [3]: (100) %
- R/cell (from Bmax) [3]: 2.9 +/− 0.2 R/cell × 10^−4
- [EGF] at which 500R/cell are occupied ([3]; calculated from Kd and Bmax): ~60 pM
- R/cell (from Bmax) [4]: 3.45 +/− 0.12 R/cell × 10^−4
- [EGF] at which 500R/cell are occupied ([4]; calculated from Kd and Bmax): ~80 pM
- % of sites (Kd2) [5]: (100) %
- R/cell (from Bmax) [5]: 1.2 +/− 0.1 R/cell × 10^−4
- [EGF] at which 500R/cell are occupied ([5]; calculated from Kd and Bmax): 400 pM
- R/cell (from Bmax) [6]: 3.8 +/− 0.71 R/cell × 10^−4
- [EGF] at which 500R/cell are occupied ([6]; calculated from Kd and Bmax): <1 pM
- % of sites (Kd1) [6, 9]: 12.6 +/− 4%
- % of sites (Kd2) ([6]; low affinity sites): 90.8 +/− 1.9%
- R/cell (from Bmax) [7]: 3.4 +/− 0.7 R/cell × 10^−4
- [EGF] at which 500R/cell are occupied ([7]; calculated from Kd and Bmax): ~15 pM
- % of sites (Kd1) [7, 9]: 2.6 +/− 0.4%
- % of sites (Kd2) ([7]; low affinity sites): 97.5 +/− 0.49%
- % of sites (Kd2) [8]: (100) %
- R/cell (from Bmax) [8]: 3.0 +/− 0.2 R/cell × 10^−4
- [EGF] at which 500R/cell are occupied ([8]; calculated from Kd and Bmax): 30 pM
